Data set [1] deals with the molecule itself. Briefly: SDS-PAGE of undigested full-length DIG-177 (self-association).
Experimental: SDS-PAGE was run following the protocol NuPAGE Bis-Tris gels from Invitrogen Life technologies (Protocol Pub. No. MAN0007894 Rev. A.0, Ref. 2). Briefly, samples were mixed with denaturing sample buffer (Invitrogen) plus 5 mM DTT (for reducing PAGE) or minus DTT (for non reducing PAGE) and heated at 95° C. for 5 minutes. The samples were loaded onto Invitrogen Bis/Tris gel. The gel was run with MOPS or MES running buffer under 200 V for ˜43 minutes. The gel was stained with Coomassie blue staining solution (Bio-Rad) for 30 minutes and de-stained with de-staining solution (7% Acetic acid and 5% Methanol in water) until the background cleared.
Data set [2] has as its target T1, Large fragment (residues 12-390) of trypsin treated DIG-984 (DIG-177 C88>A; C451>A) (Bacillus thuringiensis) (UniProt Q45757).
T1 sequence: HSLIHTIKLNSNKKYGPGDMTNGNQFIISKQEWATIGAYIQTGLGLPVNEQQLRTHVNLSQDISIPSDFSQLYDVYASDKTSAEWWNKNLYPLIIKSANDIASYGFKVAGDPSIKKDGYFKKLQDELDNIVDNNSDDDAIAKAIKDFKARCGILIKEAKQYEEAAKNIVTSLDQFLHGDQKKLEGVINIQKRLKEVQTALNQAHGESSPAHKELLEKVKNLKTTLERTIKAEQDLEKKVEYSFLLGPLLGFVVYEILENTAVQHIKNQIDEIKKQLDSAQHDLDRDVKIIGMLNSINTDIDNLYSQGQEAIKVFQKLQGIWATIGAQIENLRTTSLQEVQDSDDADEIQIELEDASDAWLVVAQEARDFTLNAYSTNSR
Briefly: cell-based or functional assay.

The target in data set [3] is T2, Large fragment (residues 12-390) of trypsin treated DIG-616 (DIG-177 C162>A) (Bacillus thuringiensis, UniProt Q45757 12-390).
T2 sequence: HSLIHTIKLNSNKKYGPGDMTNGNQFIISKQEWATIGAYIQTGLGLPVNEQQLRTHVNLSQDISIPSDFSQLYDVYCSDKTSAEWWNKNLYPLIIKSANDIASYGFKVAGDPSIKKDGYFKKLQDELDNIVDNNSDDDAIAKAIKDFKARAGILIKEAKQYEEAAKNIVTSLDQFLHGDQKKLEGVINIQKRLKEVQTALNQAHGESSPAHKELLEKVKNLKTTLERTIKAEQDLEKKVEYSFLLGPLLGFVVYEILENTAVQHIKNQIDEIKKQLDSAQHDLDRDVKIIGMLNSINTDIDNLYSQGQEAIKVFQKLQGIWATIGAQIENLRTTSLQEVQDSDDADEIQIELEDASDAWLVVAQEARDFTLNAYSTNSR
Briefly: cell-based or functional assay.

“And” between values parts separate entries of the source, which are not always exact repeats. Identical values can stand only once. Where no end group is shown, it is not given here.

B1: DIG-177 (full length wild type Cry6Aa) (other)
chain: MIIDSKTTLPRHSLIHTIKLNSNKKYGPGDMTNGNQFIISKQEWATIGAYIQTGLGLPVNEQQLRTHVNLSQDISIPSDFSQLYDVYCSDKTSAEWWNKNLYPLIIKSANDIASYGFKVAGDPSIKKDGYFKKLQDELDNIVDNNSDDDAIAKAIKDFKARCGILIKEAKQYEEAAKNIVTSLDQFLHGDQKKLEGVINIQKRLKEVQTALNQAHGESSPAHKELLEKVKNLKTTLERTIKAEQDLEKKVEYSFLLGPLLGFVVYEILENTAVQHIKNQIDEIKKQLDSAQHDLDRDVKIIGMLNSINTDIDNLYSQGQEAIKVFQKLQGIWATIGAQIENLRTTSLQEVQDSDDADEIQIELEDASDAWLVVAQEARDFTLNAYSTNSRQNLPINVISDSCNCSTTNMTSNQYSNPTTNMTSNQYMISHEYTSLPNNFMLSRNSNLEYKCPENNFMIYWYNNSDWYNNSDWYNN
notes: Insecticidal crystal protein; Recombinant from Pseudomonas fluorescens (standard), or expressed in maize, there in part with transit peptides
On to B1, for which, in data set [1], the binding result is on record as “binds”.

B2: Carboxy terminal peptide 444-475 of trypsin treated DIG-984 (C451>A) (peptide)
peptide: NSNLEYKAPENNFMIYWYNNSDWYNNSDWYNN
In the case of B2, the % Mortality in data set [2] was 0% and 21.1% and 15%.

B3: CTP 1 (Carboxy terminal peptide 1), amino acids 444-475 of SEQ ID NO:2 (peptide)
peptide: NSNLEYKCPENNFMIYWYNNSDWYNNSDWYNN
modifications: also: Cys451 (position 8) disulfide-bonded to Cys88 of LF under non-reducing conditions
B3: the “% Mortality” value in data set [3] was 95%.

B4: Carboxy terminal peptide 451-475 of trypsin treated DIG-984 (C451>A) (peptide)
peptide: APENNFMIYWYNNSDWYNNSDWYNN
As for B4, in data set [2], the % Mortality was 0% and 21.1% and 15%.

B5: CTP 2 (Carboxy terminal peptide 2), amino acids 451-475 of SEQ ID NO:2 (peptide)
peptide: CPENNFMIYWYNNSDWYNNSDWYNN
modifications: also: Cys451 (position 1) disulfide-bonded to Cys88 of LF under non-reducing conditions
B5: in data set [3], the “% Mortality” value worked out at 95%.

The record behind these values is patent US20170051304A1 (DOW AGROSCIENCES, published 2017).
